The labels stand for the following.
T1: GST-Dbf4 (S. cerevisiae (budding yeast), UniProt P32325 1-704)
T1 sequence (looked up): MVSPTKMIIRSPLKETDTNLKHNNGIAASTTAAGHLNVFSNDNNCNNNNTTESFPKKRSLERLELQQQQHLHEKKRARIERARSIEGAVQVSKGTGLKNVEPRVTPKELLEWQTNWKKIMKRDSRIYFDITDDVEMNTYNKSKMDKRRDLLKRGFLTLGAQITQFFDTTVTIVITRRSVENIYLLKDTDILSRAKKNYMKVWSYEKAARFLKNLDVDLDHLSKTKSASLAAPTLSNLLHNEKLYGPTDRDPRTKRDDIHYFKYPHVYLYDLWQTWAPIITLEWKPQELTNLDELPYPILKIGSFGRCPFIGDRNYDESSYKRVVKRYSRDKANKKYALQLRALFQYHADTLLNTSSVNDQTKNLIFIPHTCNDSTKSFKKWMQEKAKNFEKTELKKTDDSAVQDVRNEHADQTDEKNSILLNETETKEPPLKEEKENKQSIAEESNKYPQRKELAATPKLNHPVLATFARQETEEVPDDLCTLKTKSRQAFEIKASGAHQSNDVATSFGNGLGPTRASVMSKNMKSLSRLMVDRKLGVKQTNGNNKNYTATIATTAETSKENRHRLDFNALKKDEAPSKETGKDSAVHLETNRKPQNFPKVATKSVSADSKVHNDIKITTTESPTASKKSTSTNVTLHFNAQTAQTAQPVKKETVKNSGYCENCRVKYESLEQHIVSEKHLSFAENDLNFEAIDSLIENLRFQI

T2: Phosphatase-treated Dbf4 purified from yeast cells (S. cerevisiae (endogenous in yeast), UniProt P32325 1-704, treated with λ-phosphatase)
T2 sequence (looked up): T1 sequence (looked up)

T3: Purified recombinant Dbf4 (6His-Dbf4p, pET28a-Dbf4) (S. cerevisiae (budding yeast), UniProt P32325 1-704)
T3 sequence (looked up): T1 sequence (looked up)

B1: His6-Sld3 (natural protein, S. cerevisiae (budding yeast), UniProt P53135 1-668, looked up)
chain: METWEVIASVKEATKGLDLSLDHPLIIKSEDVPSNILQLLQQKNRRQLKHICMKSRKEYFLLEEYGPGFWVKWPYNYFNGYSLPERRTEVVTTVERERAKRETLKTWDELKFKELLHLWSEEPKGSCKLEKDKDLKLDMNPPDMKGESKINDYYSDPKEYIESKYYDALFSIHTPLAYFVKSNLVRLKNTCRTKYGSDSYKIAYQAMLQKFLLSIVQFKDRHDNRLLLEPFSSPIADEKRKNCLTKFVIQDENKNSSTIADLCVVLKSREIKLQILLLLEIIGLNDLDWNFRDFEKKYKLKLKKRSLNLTKKGLVRRRSKKKTSEKDKGIERITTSLDYCEQLDLYLDRACILDILLSSETPNPDAIEASNGTIQEHKKNILDKSKEASLVGFINYVLIPYFNKKVPHAVEFIIQKLKGPSMRPKRALKKVNDSTNVSSPNTVETYNRLSTSQRASRSSIINSVPSSPALRRVDANLFSRKSIASPTPELLNSRTNSNLNEFLESETRSLKRPSQLGRTKSDLTMNHLQKRQFSVSDLSTTRVPNSSTITLKTPFSHSTINAYKTMNNSFRRVGKRKDINETIRLHERVDSEENVQVQATPAVKKRTVTPNKKAQLQSIIESPLNFKDDDTHEGRKNTSNITSTPTNKPPENSSKRRVRRRLFAPEST
B2: GST-Dbf4 (1-390) (domain or fragment, S. cerevisiae (budding yeast), UniProt P32325 1-390, looked up)
chain: MVSPTKMIIRSPLKETDTNLKHNNGIAASTTAAGHLNVFSNDNNCNNNNTTESFPKKRSLERLELQQQQHLHEKKRARIERARSIEGAVQVSKGTGLKNVEPRVTPKELLEWQTNWKKIMKRDSRIYFDITDDVEMNTYNKSKMDKRRDLLKRGFLTLGAQITQFFDTTVTIVITRRSVENIYLLKDTDILSRAKKNYMKVWSYEKAARFLKNLDVDLDHLSKTKSASLAAPTLSNLLHNEKLYGPTDRDPRTKRDDIHYFKYPHVYLYDLWQTWAPIITLEWKPQELTNLDELPYPILKIGSFGRCPFIGDRNYDESSYKRVVKRYSRDKANKKYALQLRALFQYHADTLLNTSSVNDQTKNLIFIPHTCNDSTKSFKKWMQEKAKNFE
B3: GST-Fkh1 (natural protein, S. cerevisiae (budding yeast), UniProt P40466 1-484, looked up)
chain: MSVTSREQKFSGKYSSYTAQDRQGLVNAVTCVLSSSSDPVAVSSDYSNSLSIAREVNAYAKIAGCDWTYYVQKLEVTIGRNTDSLNLNAVPGTVVKKNIDIDLGPAKIVSRKHAAIRFNLESGSWELQIFGRNGAKVNFRRIPTGPDSPPTVLQSGCIIDIGGVQMIFILPEQETIISDYCLNHLMPKLLSTYGTNGNNNPLLRNIIEGSTYLREQRLQEEARLQQLDHLHTPLSSSSDVNPIGDPHGDTIMMEEDEEDENYTRGGIRPNTYTSSSNNAVTNGNVPHIENPSDLSLDENRYIKPPQSYASMITQAILSTPEGSISLADIYKFISDNYAFYRFSQMAWQNSVRHNLSLNKAFEKVPKRAGQQGKGMNWKISDEVRRDFLNKWNAGKLSKIRRGASVTRQLQLHMSKFGEIPAPESSSIDPRGIKAQKVKKSLQATSSILGESAPQLQRTQLTGQISTTTSMDVTTNANVNNSSLS
B4: Purified recombinant Fkh1 (in vitro recruitment assay) (natural protein, S. cerevisiae (budding yeast), UniProt P40466 1-484, looked up)
chain: B3 chain

The target of one assay is T1, GST-Dbf4. In words: pull-down.
In the assay “His6-Sld3” the target is B1. Nature of the assay: pull-down.
The target of assay [1] is T2, Phosphatase-treated Dbf4 purified from …. In words: pull-down.
In assay [2] the target is T3, Purified recombinant Dbf4 (6His-Dbf4p, …). Nature of the assay: in vitro origin recruitment assay on DNA beads.
In the assay “GST-Fkh1” the target is B3. Nature of the assay: pull-down.

On to B1, for which, in the assay with GST-Dbf4, the binding result is “binds”.

Turning to B2, in the assay with His6-Sld3, the binding result is “binds”.

As for B3, the binding result in assay [1] is on record as “binds”.

B4: the binding result in assay [2] is “binds”.

For KNSGYCENCRVKYESLEQHIVSEKHLSFAENDLNFEAIDSLIENLRFQI (domain or fragment, S. cerevisiae (budding yeast), UniProt P32325 656-704, looked up) [6His-Dbf4 (656-704)], the binding result with GST-Fkh1 is “binds”.
